Results reported in patent US20260241049A1, “Radiopharmaceutical Compositions Targeting Glypican-3 and Uses Thereof” (RayzeBio, Inc., priority 2023, published 2026).
Starred links: 1 amine or outer side, 2 acyl side, 3 side chain; linkers in the order of their positions; H or OH if unused. Positions of bridges follow the written chain, without caps; N, C: chain ends. Non-standard residues stand in square brackets, D forms with d. Groups on a side chain read outwards from the residue. Primed or numbered codes have the meaning given here. *: point of attachment. MeKCOpipzaa″ = (2S)-6-{[4-(carboxymethyl)piperazine-1-carbonyl]amino}-2-(methylamino)hexanoic acid, CN([C@@H](CCCCNC(=O)N1CCN(CC(=O)[*:3])CC1)C(=O)[*:2])[*:1]; MeA4paa = 3-(1-(carboxymethyl)piperidin-4-yl)-2-(methylamino)propanoic acid, CN([C@@H](CC1CCN(CC(=O)[*:3])CC1)C(=O)[*:2])[*:1]; MeHseMe(3) = N-methyl-O-methyl-homoserine, 4-methoxy-2-(methylamino)butanoic acid, COCC[C@@H](C(=O)[*:2])N(C)[*:1]; F4aao″ = 2-amino-3-(4-(carboxymethoxy)phenyl)propanoic acid, O=C([C@H](Cc1ccc(OCC(=O)[*:3])cc1)N[*:1])[*:2]; TMe(3) = O-methyl-L-threonine ((2S,3R)-2-amino-3-methoxybutanoic acid), CO[C@H](C)[C@H](N[*:1])C(=O)[*:2]; F4aao = 4-(carboxymethoxy)-L-phenylalanine, O=C([C@H](Cc1ccc(OCC(=O)[*:3])cc1)N[*:1])[*:2]; MeHseMe = N-methyl-O-methyl-L-homoserine, COCC[C@@H](C(=O)[*:2])N(C)[*:1]; Hgn = 2,6-diamino-6-oxohexanoic acid, NC(=O)CCC[C@H](N[*:1])C(=O)[*:2]; Phe(4-(1-Me-pyrazol-4-yl)) = Cn1cc(-c2ccc(C[C@H](N)C(=O)O)cc2)cn1; TMe = O-methyl-L-threonine, CO[C@H](C)[C@H](N[*:1])C(=O)[*:2]; NMeAla(isoquinolin-7-yl) = CN[C@@H](Cc1ccc2ccncc2c1)C(=O)O; SulfoCy5(3) = sulfo-Cyanine5 hexanoyl dye on the lysine NZ; PEG12 = NCCOCCOCCOCCOCCOCCOCCOCCOCCOCCOCCOCCOCCC(=O)O; Phe(4-CH2COOH) = N[C@@H](Cc1ccc(CC(=O)O)cc1)C(=O)O; 3Pal(6-Ph) = N[C@@H](Cc1ccc(-c2ccccc2)nc1)C(=O)O; Biotin = O=C1N[C@H]2[C@H](CS[C@H]2CCCCC(=O)*)N1; Phe(4-COOH) = N[C@@H](Cc1ccc(C(=O)O)cc1)C(=O)O; NMe2Nal = CN[C@@H](Cc1ccc2ccccc2c1)C(=O)O; AEF = NCCOc1ccc(C[C@H](N)C(=O)O)cc1; NMeY = CN[C@@H](Cc1ccc(O)cc1)C(=O)O; NMeI = CC[C@H](C)[C@H](NC)C(=O)O; NMeQ = CN[C@@H](CCC(N)=O)C(=O)O; NMeK = CN[C@@H](CCCCN)C(=O)O; NMeC = CN[C@@H](CS)C(=O)O; NMeA = CN[C@@H](C)C(=O)O; MeK = methyl-L-lysine

B1: Macrocyclic peptide of Example 2-46 (SEQ ID No. 6) (peptide)
peptide: {CH2CO}-[MeK][NMeI]Q[NMeQ][Phe(4-COOH)]II[Phe(4-COOH)][NMe2Nal]G[Phe(4-(1-Me-pyrazol-4-yl))][NMeC]-NH2
modifications: thioether N-12
B2: Macrocyclic peptide of Example 2-48 (SEQ ID No. 22) (peptide)
peptide: {CH2CO}-[MeK][MeHseMe(3)]D[NMeQ][Phe(4-COOH)]II[Phe(4-CH2COOH)][NMe2Nal]G[Phe(4-(1-Me-pyrazol-4-yl))][NMeC]-NH2
modifications: thioether N-12
B3: Macrocyclic peptide of Example 2-54 (SEQ ID No. 29) (peptide)
peptide: {CH2CO}-[MeK][NMeQ][Hgn][NMeQ][Phe(4-COOH)][TMe(3)]IY[NMe2Nal]G[Phe(4-(1-Me-pyrazol-4-yl))][NMeC]-NH2
modifications: thioether N-12
B4: PLB-28 (peptide)
peptide: {CH2CO}-[NMeQ][NMeQ]D[NMeQ][Phe(4-COOH)]II[AEF]([PEG12-Biotin])[NMe2Nal]G[Phe(4-(1-Me-pyrazol-4-yl))][NMeC]-NH2
modifications: thioether N-12
SMILES: CC[C@H](C)[C@@H]1NC(=O)[C@H](Cc2ccc(C(=O)O)cc2)NC(=O)[C@H](CCC(N)=O)N(C)C(=O)[C@H](CC(=O)O)NC(=O)[C@H](CCC(N)=O)N(C)C(=O)[C@H](CCC(N)=O)N(C)C(=O)CSC[C@@H](C(N)=O)N(C)C(=O)[C@H](Cc2ccc(-c3cnn(C)c3)cc2)NC(=O)CNC(=O)[C@H](Cc2ccc3ccccc3c2)N(C)C(=O)[C@H](Cc2ccc(OCCNC(=O)CCOCCOCCOCCOCCOCCOCCOCCOCCOCCOCCOCCOCCNC(=O)CCCC[C@@H]3SC[C@@H]4NC(=O)N[C@@H]43)cc2)NC(=O)[C@H]([C@@H](C)CC)NC1=O
B5: Macrocyclic peptide of Example 2-56 (SEQ ID No. 27) (peptide)
peptide: {CH2CO}-[NMeQ][NMeQ]D[NMeQ][AEF]II[Phe(4-CH2COOH)][NMe2Nal]G[Phe(4-(1-Me-pyrazol-4-yl))][NMeC]-NH2
modifications: thioether N-12
SMILES: CC[C@H](C)[C@@H]1NC(=O)[C@H](Cc2ccc(OCCN)cc2)NC(=O)[C@H](CCC(N)=O)N(C)C(=O)[C@H](CC(=O)O)NC(=O)[C@H](CCC(N)=O)N(C)C(=O)[C@H](CCC(N)=O)N(C)C(=O)CSC[C@@H](C(N)=O)N(C)C(=O)[C@H](Cc2ccc(-c3cnn(C)c3)cc2)NC(=O)CNC(=O)[C@H](Cc2ccc3ccccc3c2)N(C)C(=O)[C@H](Cc2ccc(CC(=O)O)cc2)NC(=O)[C@H]([C@@H](C)CC)NC1=O
B6: Macrocyclic peptide of Example 2-53 (SEQ ID No. 28) (peptide)
peptide: {CH2CO}-[NMeQ][NMeQ]D[NMeQ][Phe(4-COOH)]II[AEF][NMe2Nal]G[Phe(4-(1-Me-pyrazol-4-yl))][NMeC]-NH2
modifications: thioether N-12
SMILES: CC[C@H](C)[C@@H]1NC(=O)[C@H](Cc2ccc(C(=O)O)cc2)NC(=O)[C@H](CCC(N)=O)N(C)C(=O)[C@H](CC(=O)O)NC(=O)[C@H](CCC(N)=O)N(C)C(=O)[C@H](CCC(N)=O)N(C)C(=O)CSC[C@@H](C(N)=O)N(C)C(=O)[C@H](Cc2ccc(-c3cnn(C)c3)cc2)NC(=O)CNC(=O)[C@H](Cc2ccc3ccccc3c2)N(C)C(=O)[C@H](Cc2ccc(OCCN)cc2)NC(=O)[C@H]([C@@H](C)CC)NC1=O
B7: PLB-30 (peptide)
peptide: {CH2CO}-[NMeK]([PEG12-Biotin])[NMeI]D[NMeQ][Phe(4-COOH)][TMe]I[F4aao][NMeAla(isoquinolin-7-yl)]G[3Pal(6-Ph)][NMeC]-NH2
modifications: thioether N-12
SMILES: CC[C@H](C)[C@@H]1NC(=O)[C@H]([C@@H](C)OC)NC(=O)[C@H](Cc2ccc(C(=O)O)cc2)NC(=O)[C@H](CCC(N)=O)N(C)C(=O)[C@H](CC(=O)O)NC(=O)[C@H]([C@@H](C)CC)N(C)C(=O)[C@H](CCCCNC(=O)CCOCCOCCOCCOCCOCCOCCOCCOCCOCCOCCOCCOCCNC(=O)CCCC[C@@H]2SC[C@@H]3NC(=O)N[C@@H]32)N(C)C(=O)CSC[C@@H](C(N)=O)N(C)C(=O)[C@H](Cc2ccc(-c3ccccc3)nc2)NC(=O)CNC(=O)[C@H](Cc2ccc3ccncc3c2)N(C)C(=O)[C@H](Cc2ccc(OCC(=O)O)cc2)NC1=O
B8: Macrocyclic peptide of Example 2-51 (SEQ ID No. 25) (peptide)
peptide: {CH2CO}-[MeK][NMeQ]D[MeA4paa][Phe(4-COOH)][TMe(3)]I[Phe(4-CH2COOH)][NMe2Nal]G[Phe(4-(1-Me-pyrazol-4-yl))][NMeC]-NH2
modifications: thioether N-12
B9: Macrocyclic peptide of Example 2-43 (SEQ ID No. 32) (peptide)
peptide: {CH2CO}-[NMeK][NMeI]D[NMeQ][Phe(4-COOH)][TMe]I[F4aao″][NMeAla(isoquinolin-7-yl)]G[3Pal(6-Ph)][NMeC]E-NH2
modifications: thioether N-12
SMILES: CC[C@H](C)[C@@H]1NC(=O)[C@H]([C@@H](C)OC)NC(=O)[C@H](Cc2ccc(C(=O)O)cc2)NC(=O)[C@H](CCC(N)=O)N(C)C(=O)[C@H](CC(=O)O)NC(=O)[C@H]([C@@H](C)CC)N(C)C(=O)[C@H](CCCCN)N(C)C(=O)CSC[C@@H](C(=O)N[C@@H](CCC(=O)O)C(N)=O)N(C)C(=O)[C@H](Cc2ccc(-c3ccccc3)nc2)NC(=O)CNC(=O)[C@H](Cc2ccc3ccncc3c2)N(C)C(=O)[C@H](Cc2ccc(OCC(=O)O)cc2)NC1=O
B10: Macrocyclic peptide of Example 2-55 (SEQ ID No. 56) (peptide)
peptide: {CH2CO}-[MeKCOpipzaa″][NMeA]D[NMeY][Phe(4-COOH)][TMe]I[AEF][NMeY]G[3Pal(6-Ph)][NMeC]-NH2
modifications: thioether N-12
SMILES: CC[C@H](C)[C@@H]1NC(=O)[C@H]([C@@H](C)OC)NC(=O)[C@H](Cc2ccc(C(=O)O)cc2)NC(=O)[C@H](Cc2ccc(O)cc2)N(C)C(=O)[C@H](CC(=O)O)NC(=O)[C@H](C)N(C)C(=O)[C@H](CCCCNC(=O)N2CCN(CC(=O)O)CC2)N(C)C(=O)CSC[C@@H](C(N)=O)N(C)C(=O)[C@H](Cc2ccc(-c3ccccc3)nc2)NC(=O)CNC(=O)[C@H](Cc2ccc(O)cc2)N(C)C(=O)[C@H](Cc2ccc(OCCN)cc2)NC1=O
B11: PLD-45 (peptide)
peptide: {CH2CO}-K[MeHseMe]D[NMeQ][Phe(4-COOH)][TMe]IY[NMeAla(isoquinolin-7-yl)]G[3Pal(6-Ph)][NMeC]-NH2
modifications: thioether N-12; not fully specified (residue 1); printed as MeK-MeHseMe-D-MeQ-F4COO-TMe-I-Y-MeNal27N-G-3Py6Ph-MeC-NH2
notes: SulfoCy5 conjugate
B12: Mod7 (peptide)
peptide: {CH2CO}-[NMeK](SulfoCy5(3))[MeHseMe]D[NMeQ][Phe(4-COOH)][TMe]I[F4aao][NMeAla(isoquinolin-7-yl)]G[3Pal(6-Ph)][NMeC]-NH2
modifications: thioether N-12
B13: PLB-60 (peptide)
peptide: KIDQFIIYFGXCG
modifications: not fully specified; MeKAc-MeI-D-MeQ-F4COO-I-I-Y-MeNal27N-G-3Py6Ph-MeC-G-PEG12c-K(biotin)-NH2 by Table 13 (Table 1 prints PEG10c and K at positions 14 and 15 of SEQ ID No. 60); thioether ring from N-terminal acetyl to MeC12
notes: Biotin on the C-terminal tail outside the ring
B14: Macrocyclic peptide of Example 2-52 (SEQ ID No. 26) (peptide)
peptide: {CH2CO}-[NMeQ][NMeQ]D[MeK][Phe(4-COOH)]II[Phe(4-CH2COOH)][NMe2Nal]G[Phe(4-(1-Me-pyrazol-4-yl))][NMeC]-NH2
modifications: thioether N-12
B15: Macrocyclic peptide of Example 2-47 (SEQ ID No. 21) (peptide)
peptide: {CH2CO}-[MeK][MeHseMe(3)]D[NMeQ][Phe(4-COOH)]II[Phe(4-CH2COOH)][NMe2Nal]G[3Pal(6-Ph)][NMeC]-NH2
modifications: thioether N-12

target: T1, Human Glypican3-Fc (ACRO Biosystems, GP3-H5258) (human, UniProt P51654 25-559); experiment: SPR (Biacore T200), Method B-3: Glypican3-Fc captured on Protein A chip, peptide as analyte
T1 construct: Bought fusion protein, captured in Methods B-2, B-3 and B-4; Catalogue number is printed only in Method B-2; not shown: Fc part of the bought fusion
Protocol: A Protein A sensor chip (Cytiva) was inserted into a Biacore T200 (Cytiva), priming was performed three times with a running buffer: HBS-P+, pH 7.4 (Cytiva), and equilibration was carried out at a flow rate of 30 μL/min. Glypican3-Fc was allowed to react for 60 seconds at a flow rate of 10 μL/min. After capturing human Glypican3-Fe, a peptide solution prepared to 10 mM in DMSO solution was diluted with a running buffer to a final concentration of 10 μM. […] Using the above samples, peptide kinetics for Glypican3 was obtained by SPR measurement. Kinetics evaluation of Glypican3 was performed by SPR measurements at a flow rate of 10 LL/min, setting the association time to 120 seconds and the disassociation time to 600 seconds.
The obtained data by Method B-1, Method B-2, Method B-3 and Method B-4 were analyzed by follow. Single Cycle Kinetics was used as the kinetics evaluation model, and curve fitting was performed using Biacore T200 Evaluation Software Version 3.0 (Cytiva).

Compared with B1, B2 is 2.5-fold higher in Kd: 0.2 nM for the first, 0.5 nM for the second.

Going from B3 to B4, the Kd rises from 0.1 nM to 1.53 nM (15-fold). The first binds more tightly here.

First: B5
Second: B6
The Kd of the first is 7.9-fold higher: 7.9 nM for the first, 1 nM for the second.

First: B7
Second: B8
The Kd of the first is 3.3-fold lower: 0.75 nM for the first, 2.5 nM for the second. The first binds more tightly here.

Compared with B9, B10 is 1.8-fold lower in Kd: 9.3 nM for the first, 5.3 nM for the second.

First: B11
Second: B12
The Kd of the first is 4.8-fold lower: 0.88 nM for the first, 4.2 nM for the second. The first binds more tightly here.

First: B13
Second: B14
The Kd of the first is 15-fold lower: 0.11 nM for the first, 1.6 nM for the second. The first binds more tightly here.

B15 was tested, and the Kd was 0.2 nM.
